Molecular target: the molecule itself
Experiment: SEC

B1: Recombinant CIDE-N domain of mouse Fsp27 (a.a. 39-119) (domain or fragment, UniProt P56198 39-119, looked up)
chain: TPRARPCRVSTADRKVRKGIMAHSLEDLLNKVQDILKLKDKPFSLVLEEDGTIVETEEYFQALAKDTMFMVLLKGQKWKPP
stoichiometry N: 2

From publication PMC3615468 (Nature Communications, 2013)
